In the supplement of paper PMC12042874:
± gives the uncertainty stated by the source.

Test: amyloid nucleation score (Sup35N fusion, yeast selection) (log enrichment); library NNK1; higher = more nucleation; inactive = no reads after selection
Outline: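 Growth for 7 days at 30°C on medium lacking adenine and uracil followed a 24-hour induction with 100 μM copper sulfate of psi-negative yeast expressing peptides of 20 random codons fused to Sup35N. Input and output plasmid inserts were sequenced with Illumina, and sequences with under 100 input reads were excluded. Nucleation score is the DiMSum log enrichment of output over input reads, centred on the mode score of non-aggregating sequences.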

Row | Substance | amyloid nucleation score
1 | SPHTI | 4.92 ± 0.097
2 | SPLNKMVTFVAVLAFVFVLV | 0.114 ± 0.66
3 | SPSFYFH | -0.019 ± 0.98
4 | SPTTRTCNLVKIQGTNLSHR | 1.36 ± 0.66
5 | SPWSSNRYVLNSFYLSHPRR | -0.308 ± 0.32
6 | SQHDRKYHYTIGYAQELDGL | -0.235 ± 0.43
7 | SQLESFWVYMQLRGMTYTVA | -0.081 ± 0.31
8 | SQLGMAWLSHGVDLPIRFYK | 0.241 ± 1.4
9 | SQLWCLTNKHRKQQRKAGHY | 0.027 ± 0.53
10 | SQPMSS | 0.591 ± 0.31
11 | SQVMSRLLGKFKLY | -0.609 ± 0.32
12 | SRDEFCG | -0.326 ± 0.47
13 | SRGRSNAALSLRKFVGGFCL | inactive
14 | SRIGTCGLNSCCLINNIVRD | 6.919 ± 0.045
15 | SRLVFGHTNRRNSIEQTELL | inactive
16 | SRRWGLN | inactive
17 | SRTVTLFHHASNKSFHSSVS | -0.074 ± 0.9
18 | SRVSTFGWIIRSEYYFFWAW | 0.666 ± 0.32
19 | SRVVFTSM | -1.18 ± 1.6
20 | SRYLDIEVLSHGMNWMTFQT | -0.005 ± 0.77
21 | SSCLEGCKSEACGWSNDGPG | -0.048 ± 0.76
22 | SSDMGFFARYLSLNH | 0.512 ± 0.55

Row | Substance | amyloid nucleation score
23 | SSFQGPSYSSCIRQHRNTRI | -0.614 ± 0.67
24 | SSFSLGHVDGYKSTSVDAVL | 0.048 ± 1.4
25 | SSGFVYIYSSKSLGANSKNL | -0.176 ± 1
26 | SSGPVFYKLPRLHCVGSHRH | 0.603 ± 0.5
27 | SSGQLSNKYC | 0.786 ± 0.46
28 | SSGVSNQSIQDIDMRLVYFA | 0.06 ± 0.35
29 | SSILDHLAAFVRRWFVYALL | -0.591 ± 0.98
30 | SSILISFI | -0.471 ± 0.94
31 | SSIVIRTCKWYGTVCIWELL | -0.339 ± 0.39
32 | SSKMNILP | 0.51 ± 0.26
33 | SSLMPIYRLFLWFVKVYVKP | 9.39 ± 0.049
34 | SSLQFEMVFGTCYCRKSYSR | 4.19 ± 0.082
35 | SSNFLRILIGTFVRYRV | 0.073 ± 0.37
36 | SSQVIVCDVYSQVTRFSFCE | 0.557 ± 0.29
37 | SSSGMVDSVSYDLRGRVGLR | 0.29 ± 0.3
38 | SSSIVLCAVRCSRPSWFGML | 1.45 ± 0.32
39 | SSSSYIYCYFFPQSMVMVFS | 3.66 ± 0.1
40 | SSSVCASFAVWSCCASF | 4.52 ± 0.084
41 | SSVCFVNRGSWPYSKVFNGC | -0.019 ± 0.37
42 | SSWFFYQNIAVSYSNKAINF | 0.379 ± 0.17
43 | SSWSFHARWRVRAISCACN | -0.062 ± 0.51
44 | SSYVMVCMKTYWCQEL | 2.45 ± 0.18

Row | Substance | amyloid nucleation score
45 | STCGCRPGLLFWARSPYN | -0.367 ± 0.63
46 | STCLGGERSYRYVMWLVLVV | 0.148 ± 0.42
47 | STDVEGRFTEMLSELMLYVD | inactive
48 | STEIATKGGGQLGIISTNDA | 0.254 ± 0.56
49 | STFIVGMRYVPLSKGR | -0.513 ± 1
50 | STGLACSSWQAFIYLCLLYY | -0.516 ± 1.1
51 | STGPAFDSKGVSTAMSRASF | inactive
52 | STHCFWVTPGD | 0.483 ± 0.83
53 | STILKWRSWLARFLIHMVVV | 0.659 ± 0.47
54 | STNACRPVMAQGDHGLSVLR | 0.283 ± 0.6
55 | STNFLWTTFGFFHVCLDGAM | -0.218 ± 0.92
56 | STNIFSYATLSGFYTVTMIR | -0.618 ± 0.49
57 | STSILGANFALVWSEVVTVS | -0.023 ± 0.66
58 | STSMDPLYYDYDRLYKIHDK | 0.484 ± 0.61
59 | STVNGICSRKLAIRELFSNH | -0.063 ± 0.26
60 | SVASGVMFRAYCFWWAARKV | 0.27 ± 0.47
61 | SVCGH | -0.237 ± 0.37
62 | SVCPKINLLNFVWNYYAPTA | 6.869 ± 0.064
63 | SVDIAINALS | 0.492 ± 0.41
64 | SVDVHYAGRSC | 0.552 ± 0.36
65 | SVENQNIKRYT | 1.28 ± 0.33
66 | SVFQVCFWFKYKRR | 0.201 ± 0.43

Row | Substance | amyloid nucleation score
67 | SVIAVSLETQVIAWVRYYPK | -0.315 ± 0.55
68 | SVLFNAAFFKFQNRF | 0.5 ± 0.6
69 | SVLTSMSITCWWKFWVGMSM | -0.731 ± 1.4
70 | SVMDCSFFVLPLCFGCDQKF | -0.987 ± 0.46
71 | SVNLSI | -0.196 ± 0.37
72 | SVNVRVTDYKYRGLFACAFG | 0.529 ± 0.58
73 | SVPKLKAEVE | -0.273 ± 0.2
74 | SVPVQD | 0.633 ± 0.4
75 | SVQRAV | -0.489 ± 1.7
76 | SVRCCRFGIGGYWP | -1.07 ± 1
77 | SVRVPWLASFCSKFMSGAYI | 0.058 ± 0.41
78 | SVSEGRVGLYNCG | 0.449 ± 0.89
79 | SVSGLYQHRSF | 0.184 ± 0.35
80 | SVSRYDFEVGVMGHKCCITT | -0.359 ± 0.42
81 | SVSYTPVLHCCYCIMKWNPW | 5.19 ± 0.062
82 | SVTHKTKCRLQFGVEMGQN | 1.13 ± 0.8
83 | SVVLMLKYRYMHLTGLWSWS | 0.16 ± 0.46
84 | SVWVENLEFIWRYLPSSVYP | 0.076 ± 0.3
85 | SWCNAYPQWWVRSLSMPS | -0.236 ± 0.55
86 | SWCPSQEWFMRYVFSTMCRT | 0.302 ± 0.57
